Experimental data from article PMC12172627.
Changes are numbered by the printed parent chain. Read-outs that look alike come from different tables or passages of the source.

What was measured:
Test in all cases: EMSA
E2F1 full-length [1] = biological target: T1, E2F1 full-length (human, UniProt Q01094 1-437)
E2F1 full-length [2] = biological target: T1, E2F1 full-length; remark: listed apart in the source
E2F1 DBD R166H = E2F1 DBD R166H (UniProt Q01094 110-194, R166H)
E2F1 DBD L132E = E2F1 DBD L132E (UniProt Q01094 110-194, L132E)
E2F1 full-length [3] = biological target: T1, E2F1 full-length; remark: listed apart in the source

T1 sequence (Q01094 whole entry): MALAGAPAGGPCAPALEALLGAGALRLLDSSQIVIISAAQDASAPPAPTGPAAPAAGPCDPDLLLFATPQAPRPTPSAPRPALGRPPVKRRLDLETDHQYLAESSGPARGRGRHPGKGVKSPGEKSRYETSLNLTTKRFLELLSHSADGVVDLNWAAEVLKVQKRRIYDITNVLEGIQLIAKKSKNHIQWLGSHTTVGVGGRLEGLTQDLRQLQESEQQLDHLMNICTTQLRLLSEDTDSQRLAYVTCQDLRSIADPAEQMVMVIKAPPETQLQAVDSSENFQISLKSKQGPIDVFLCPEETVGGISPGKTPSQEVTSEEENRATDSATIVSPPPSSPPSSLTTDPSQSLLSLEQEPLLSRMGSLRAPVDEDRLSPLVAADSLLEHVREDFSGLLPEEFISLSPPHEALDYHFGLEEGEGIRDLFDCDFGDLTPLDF
Chain of E2F1 DBD L132E (Q01094 110-194 L132E): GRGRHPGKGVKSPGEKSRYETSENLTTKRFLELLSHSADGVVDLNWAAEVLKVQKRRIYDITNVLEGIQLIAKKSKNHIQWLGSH
Chain of E2F1 DBD R166H (Q01094 110-194 R166H): as the sequence (Q01094 110-194 L132E) above, with E23L, R57H counted along it

B1: BS1 double stranded (stem) (structured_RNA)
RNA: AUCGAUUUCCAGCUCGAUCGAUCGAGCUGGAAAUCGAU
E2F1 full-length [1]
  binding result: binds

B2: BS3 double stranded (stem) (structured_RNA)
RNA: B1 RNA with U8C, A11C, U28G, A31G
E2F1 full-length [2]
  binding result: binds

B3: BS2 double stranded (stem) (structured_RNA)
RNA: B1 RNA with A11C, U28G
E2F1 full-length [1]
  binding result: binds

B4: BS4 double stranded (stem) (structured_RNA)
RNA: B1 RNA with A11C, G12U, C27A, U28G
E2F1 full-length [1]
  binding result: binds

B5: 42-mer dsDNA (2XE2F1_DNA_BS) (dsDNA)
DNA 1: GCCGTTTTCGCGCTTAAATTTGAGAAAGGGCGCGAAACTGGA
DNA 2: TCCAGTTTCGCGCCCTTTCTCAAATTTAAGCGCGAAAACGGC
E2F1 DBD R166H
  binding result: binds
E2F1 DBD L132E
  binding result: binds
E2F1 full-length [3]
  binding result: binds
